Assay results as given in PMC3084675 (Molecular Biology of the Cell, 2011).
Values belong to the molecule of their own block, whether it stands above or below them.

Assays:
[1] = biological target: FAK (focal adhesion kinase) (UniProt O35346); assay: S-bead precipitation of SFB-FAK, Dyn2 blot; settings: reference: wild-type Dyn2; sites Y231,Y597
[2] = biological target: FAK (focal adhesion kinase) FERM domain (UniProt O35346); assay: GST-FERM pull-down of His-Dyn2; settings: reference: His-Dyn2 wild type from TKB1 (phosphorylated); sites Y231,Y597
[3] = biological target: SFB-FAK (S protein, Flag, and streptavidin binding peptide triple tagged FAK) (rat, UniProt O35346 1-1055); assay: co-IP
Sequence of SFB-FAK (S protein, Flag, and streptavidin binding peptide triple tagged FAK) (O35346 whole entry, the tested form may be a part): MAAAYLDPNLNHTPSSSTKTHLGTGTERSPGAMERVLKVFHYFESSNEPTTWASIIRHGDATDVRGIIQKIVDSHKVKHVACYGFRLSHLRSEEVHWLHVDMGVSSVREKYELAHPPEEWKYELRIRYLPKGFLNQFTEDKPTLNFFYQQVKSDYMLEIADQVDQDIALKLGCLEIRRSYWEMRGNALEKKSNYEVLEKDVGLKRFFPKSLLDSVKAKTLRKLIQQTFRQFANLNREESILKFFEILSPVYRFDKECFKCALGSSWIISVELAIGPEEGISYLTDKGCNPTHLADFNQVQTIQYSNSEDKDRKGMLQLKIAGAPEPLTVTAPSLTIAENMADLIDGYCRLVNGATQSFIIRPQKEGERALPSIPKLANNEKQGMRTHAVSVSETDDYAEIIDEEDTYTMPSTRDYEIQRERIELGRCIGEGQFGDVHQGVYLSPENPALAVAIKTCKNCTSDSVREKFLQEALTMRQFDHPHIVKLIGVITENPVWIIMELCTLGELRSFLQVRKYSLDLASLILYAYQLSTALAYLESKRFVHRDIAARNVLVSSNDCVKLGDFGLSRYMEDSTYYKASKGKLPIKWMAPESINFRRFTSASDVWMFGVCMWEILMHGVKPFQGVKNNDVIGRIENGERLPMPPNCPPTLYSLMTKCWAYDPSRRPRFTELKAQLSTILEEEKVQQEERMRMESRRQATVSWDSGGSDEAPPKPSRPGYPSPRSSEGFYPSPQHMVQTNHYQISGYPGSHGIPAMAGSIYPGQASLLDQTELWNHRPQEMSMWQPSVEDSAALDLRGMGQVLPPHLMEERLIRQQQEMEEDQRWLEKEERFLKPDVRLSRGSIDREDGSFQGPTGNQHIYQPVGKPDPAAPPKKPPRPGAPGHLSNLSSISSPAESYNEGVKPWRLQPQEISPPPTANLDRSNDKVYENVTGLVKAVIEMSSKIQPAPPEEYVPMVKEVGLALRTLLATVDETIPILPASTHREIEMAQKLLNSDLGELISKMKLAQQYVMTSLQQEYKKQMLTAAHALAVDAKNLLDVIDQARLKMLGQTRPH

[4] = biological target: T1, GST-FERM (FERM domain of FAK) (rat, UniProt O35346 35-355); assay: pull-down
T1 sequence (looked up): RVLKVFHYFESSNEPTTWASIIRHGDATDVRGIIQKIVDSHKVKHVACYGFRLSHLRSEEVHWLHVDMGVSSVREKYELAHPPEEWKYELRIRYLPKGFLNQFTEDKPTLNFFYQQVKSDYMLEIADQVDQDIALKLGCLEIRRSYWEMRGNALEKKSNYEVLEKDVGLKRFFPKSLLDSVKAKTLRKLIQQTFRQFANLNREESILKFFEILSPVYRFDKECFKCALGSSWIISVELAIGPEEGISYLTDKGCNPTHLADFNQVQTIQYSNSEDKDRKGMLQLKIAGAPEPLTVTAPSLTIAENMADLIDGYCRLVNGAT

fold change [1]: weaker; reference 3.2 ± 0.6-fold
Molecule: Dyn2 (dynamin-2) (from UniProt P39052) Dyn2 Y231F/Y597F (YF)

fold change [2]: weaker; reference threefold
Molecule: Dyn2 (dynamin-2) (from UniProt P39052) His-Dyn2 Y231F/Y597F from TKB1

fold co-precipitated relative to Dyn2 YF [3]: 3.2 ± 0.6 fold
B1: Dyn2 WT (dynamin-2, wild type), expressed in cells (natural protein)
chain: MGNRGMEELIPLVNKLQDAFSSIGQSCHLDLPQIAVVGGQSAGKSSVLENFVGRDFLPRGSGIVTRRPLILQLIFSKTEYAEFLHCKSKKFTDFDEVRQEIEAETDRVTGTNKGISPVPINLRVYSPHVLNLTLIDLPGITKVPVGDQPPDIEYQIKDMILQFISRESSLILAVTPANMDLANSDALKLAKEVDPQGLRTIGVITKLDLMDEGTDARDVLENKLLPLRRGYIGVVNRSQKDIEGRKDIRAALAAERKFFLSHPAYRHMADRMGTPHLQKTLNQQLTNHIRESLPTLRSKLQSQLLSLEKEVEEYKNFRPDDPTRKTKALLQMVQQFGVDFEKRIEGSGDQVDTLELSGGARINRIFHERFPFELVKMEFDEKDLRREISYAIKNIHGVRTGLFTPDLAFEAIVKKQVVKLKEPCLKCVDLVIQELISTVRQCTSKLSSYPRLREETERIVTTYIREREGRTKDQILLLIDIEQSYINTNHEDFIGFANAQQRSTQLNKKRAIPNQGEILVIRRGWLTINNISLMKGGSKEYWFVLTAESLSWYKDEEEKEKKYMLPLDNLKIRDVEKGFMSNKHVFAIFNTEQRNVYKDLRQIELACDSQEDVDSWKASFLRAGVYPEKDQAENEDGAQENTFSMDPQLERQVETIRNLVDSYVAIINKSIRDLMPKTIMHLMINNTKAFIHHELLAYLYSSADQSSLMEESAEQAQRRDDMLRMYHALKEALNIIGDISTSTVSTPVPPPVDDTWLQNTSSHSPTPQRRPVSSVHPPGRPPAVRGPTPGPPLIPMPVGATSSFSAPPIPSRPGPQNVFANNDPFSAPPQIPSRPARIPPGIPPGVPSRRAPAAPSRPTIIRPAEPSLLD

fold association relative to Dyn2 YF [4]: 3 fold
B2: His-Dyn2 WT purified from TKB1 E. coli (pDyn2 protein) (natural protein)
chain: B1 chain
modifications: tyrosine-phosphorylated: recognised by the 4G10 and pDyn2 (pTyr-231) antibodies
